# Measurements taken from US20210292422A1 (published 2021).
# Like-named read-outs stand apart in the source and are kept apart here.
# T1: LRP6E1E2 (UniProt O75581 20-630)
# T1 chain: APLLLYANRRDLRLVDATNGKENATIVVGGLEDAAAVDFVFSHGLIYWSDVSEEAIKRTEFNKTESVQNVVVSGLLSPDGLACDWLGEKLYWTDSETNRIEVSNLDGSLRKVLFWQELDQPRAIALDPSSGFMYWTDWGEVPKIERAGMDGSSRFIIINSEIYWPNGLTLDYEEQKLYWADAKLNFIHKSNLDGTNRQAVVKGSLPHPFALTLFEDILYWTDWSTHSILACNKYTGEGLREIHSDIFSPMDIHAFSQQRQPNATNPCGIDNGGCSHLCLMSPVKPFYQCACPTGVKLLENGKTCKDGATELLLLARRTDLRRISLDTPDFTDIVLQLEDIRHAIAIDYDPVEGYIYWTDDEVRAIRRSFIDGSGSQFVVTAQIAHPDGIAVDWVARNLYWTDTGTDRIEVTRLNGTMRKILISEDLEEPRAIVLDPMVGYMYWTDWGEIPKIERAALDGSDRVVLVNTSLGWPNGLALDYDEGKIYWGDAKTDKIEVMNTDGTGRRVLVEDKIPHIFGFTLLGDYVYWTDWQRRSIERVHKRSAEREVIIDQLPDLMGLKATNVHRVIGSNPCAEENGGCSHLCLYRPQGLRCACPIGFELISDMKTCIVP
# Legend:
# Experiment in all cases: BLI (Octet)
# [1] = target: Frizzled 1 (Fzd1) (UniProt Q9UP38 111-230)
# [2] = target: T1, LRP6E1E2
# [3] = target: T1, LRP6E1E2
Binder,Kd [1] [nM],Kd [2] [nM],Kd [3] [nM]
F1:15:L1:Fc (bispecific antibody) EVQLVESGGGLVQPGGSLRLSCAASGFTFSHYTLSWVRQAPGKGLEWVSVISGDGSYTYYADSVKGRFTISSDNSKNTLYLQMNSLRAEDTAVYYCARNFIKYVFANWGQGTLVTVSSGGGGSGGGGSGGGGSDIELTQPPSVSVAPGQTARISCSGDNIGSFYVHWYQQKPGQAPVLVIYDKSNRPSGIPERFSGSNSGNTATLTISGTQAEDEADYYCQSYANTLSLVFGGGTKLTVLGSGSGGSGSGGSSGGDVKLVESGGGLVKLGGSLRLSCAASGFSFSTSYMSWVRQTPEKRLELVAAINLNGGSTYYSDTVKGRFTISRDNAKNTLYLQMSSLKSEDTAFYYCASELAGYGTPFAYWGQGTLVTVSAGSAASGSSGGSSSGADIVLTQSPATLSVTPGDSVSLSCKASQSISYNLHWYQQKSHESPRLLIKYTSQSISGIPSRFSGSGSGTDFTLTINNVETEDFGMYFCQQSNSWPLTFGAGTKLEVKGSGSGDKTHTCPPCPAPEAAGGPSVFLFPPKPKDTLMISRTPEVTCVVVDVSHEDPEVKFNWYVDGVEVHNAKTKPREEQYNSTYRVVSVLTVLHQDWLNGKEYKCKVSNKALGAPIEKTISKAKGQPREPQVYTLPPSREEMTKNQVSLTCLVKGFYPSDIAVEWESNGQPENNYKTTPPVLDSDGSFFLYSKLTVDKSRWQQGNVFSCSVMHEALHNHYTQKSLSLSPGK,0.4,5.5,–
L1:10:F1:Fc (bispecific antibody) DVKLVESGGGLVKLGGSLRLSCAASGFSFSTSYMSWVRQTPEKRLELVAAINLNGGSTYYSDTVKGRFTISRDNAKNTLYLQMSSLKSEDTAFYYCASELAGYGTPFAYWGQGTLVTVSAGSAASGSSGGSSSGADIVLTQSPATLSVTPGDSVSLSCKASQSISYNLHWYQQKSHESPRLLIKYTSQSISGIPSRFSGSGSGTDFTLTINNVETEDFGMYFCQQSNSWPLTFGAGTKLEVKGSGSGGSGSGEVQLVESGGGLVQPGGSLRLSCAASGFTFSHYTLSWVRQAPGKGLEWVSVISGDGSYTYYADSVKGRFTISSDNSKNTLYLQMNSLRAEDTAVYYCARNFIKYVFANWGQGTLVTVSSGGGGSGGGGSGGGGSDIELTQPPSVSVAPGQTARISCSGDNIGSFYVHWYQQKPGQAPVLVIYDKSNRPSGIPERFSGSNSGNTATLTISGTQAEDEADYYCQSYANTLSLVFGGGTKLTVLGSGSGDKTHTCPPCPAPEAAGGPSVFLFPPKPKDTLMISRTPEVTCVVVDVSHEDPEVKFNWYVDGVEVHNAKTKPREEQYNSTYRVVSVLTVLHQDWLNGKEYKCKVSNKALGAPIEKTISKAKGQPREPQVYTLPPSREEMTKNQVSLTCLVKGFYPSDIAVEWESNGQPENNYKTTPPVLDSDGSFFLYSKLTVDKSRWQQGNVFSCSVMHEALHNHYTQKSLSLSPGK,0.7,5.9,–
F1:10:L1:Fc (bispecific antibody) EVQLVESGGGLVQPGGSLRLSCAASGFTFSHYTLSWVRQAPGKGLEWVSVISGDGSYTYYADSVKGRFTISSDNSKNTLYLQMNSLRAEDTAVYYCARNFIKYVFANWGQGTLVTVSSGGGGSGGGGSGGGGSDIELTQPPSVSVAPGQTARISCSGDNIGSFYVHWYQQKPGQAPVLVIYDKSNRPSGIPERFSGSNSGNTATLTISGTQAEDEADYYCQSYANTLSLVFGGGTKLTVLGSGSGGSGSGDVKLVESGGGLVKLGGSLRLSCAASGFSFSTSYMSWVRQTPEKRLELVAAINLNGGSTYYSDTVKGRFTISRDNAKNTLYLQMSSLKSEDTAFYYCASELAGYGTPFAYWGQGTLVTVSAGSAASGSSGGSSSGADIVLTQSPATLSVTPGDSVSLSCKASQSISYNLHWYQQKSHESPRLLIKYTSQSISGIPSRFSGSGSGTDFTLTINNVETEDFGMYFCQQSNSWPLTFGAGTKLEVKGSGSGDKTHTCPPCPAPEAAGGPSVFLFPPKPKDTLMISRTPEVTCVVVDVSHEDPEVKFNWYVDGVEVHNAKTKPREEQYNSTYRVVSVLTVLHQDWLNGKEYKCKVSNKALGAPIEKTISKAKGQPREPQVYTLPPSREEMTKNQVSLTCLVKGFYPSDIAVEWESNGQPENNYKTTPPVLDSDGSFFLYSKLTVDKSRWQQGNVFSCSVMHEALHNHYTQKSLSLSPGK,0.4,5.4,–

# The remaining lines, values ahead:
Kd [1] [nM],Kd [2] [nM],Kd [3] [nM],Binder
0.6,4.9,–,L1:5:F1:Fc (bispecific antibody) DVKLVESGGGLVKLGGSLRLSCAASGFSFSTSYMSWVRQTPEKRLELVAAINLNGGSTYYSDTVKGRFTISRDNAKNTLYLQMSSLKSEDTAFYYCASELAGYGTPFAYWGQGTLVTVSAGSAASGSSGGSSSGADIVLTQSPATLSVTPGDSVSLSCKASQSISYNLHWYQQKSHESPRLLIKYTSQSISGIPSRFSGSGSGTDFTLTINNVETEDFGMYFCQQSNSWPLTFGAGTKLEVKGSGSGEVQLVESGGGLVQPGGSLRLSCAASGFTFSHYTLSWVRQAPGKGLEWVSVISGDGSYTYYADSVKGRFTISSDNSKNTLYLQMNSLRAEDTAVYYCARNFIKYVFANWGQGTLVTVSSGGGGSGGGGSGGGGSDIELTQPPSVSVAPGQTARISCSGDNIGSFYVHWYQQKPGQAPVLVIYDKSNRPSGIPERFSGSNSGNTATLTISGTQAEDEADYYCQSYANTLSLVFGGGTKLTVLGSGSGDKTHTCPPCPAPEAAGGPSVFLFPPKPKDTLMISRTPEVTCVVVDVSHEDPEVKFNWYVDGVEVHNAKTKPREEQYNSTYRVVSVLTVLHQDWLNGKEYKCKVSNKALGAPIEKTISKAKGQPREPQVYTLPPSREEMTKNQVSLTCLVKGFYPSDIAVEWESNGQPENNYKTTPPVLDSDGSFFLYSKLTVDKSRWQQGNVFSCSVMHEALHNHYTQKSLSLSPGK
0.8,5.6,–,L1:15:F1:Fc (bispecific antibody) DVKLVESGGGLVKLGGSLRLSCAASGFSFSTSYMSWVRQTPEKRLELVAAINLNGGSTYYSDTVKGRFTISRDNAKNTLYLQMSSLKSEDTAFYYCASELAGYGTPFAYWGQGTLVTVSAGSAASGSSGGSSSGADIVLTQSPATLSVTPGDSVSLSCKASQSISYNLHWYQQKSHESPRLLIKYTSQSISGIPSRFSGSGSGTDFTLTINNVETEDFGMYFCQQSNSWPLTFGAGTKLEVKGSGSGGSGSGGSSGGEVQLVESGGGLVQPGGSLRLSCAASGFTFSHYTLSWVRQAPGKGLEWVSVISGDGSYTYYADSVKGRFTISSDNSKNTLYLQMNSLRAEDTAVYYCARNFIKYVFANWGQGTLVTVSSGGGGSGGGGSGGGGSDIELTQPPSVSVAPGQTARISCSGDNIGSFYVHWYQQKPGQAPVLVIYDKSNRPSGIPERFSGSNSGNTATLTISGTQAEDEADYYCQSYANTLSLVFGGGTKLTVLGSGSGDKTHTCPPCPAPEAAGGPSVFLFPPKPKDTLMISRTPEVTCVVVDVSHEDPEVKFNWYVDGVEVHNAKTKPREEQYNSTYRVVSVLTVLHQDWLNGKEYKCKVSNKALGAPIEKTISKAKGQPREPQVYTLPPSREEMTKNQVSLTCLVKGFYPSDIAVEWESNGQPENNYKTTPPVLDSDGSFFLYSKLTVDKSRWQQGNVFSCSVMHEALHNHYTQKSLSLSPGK
0.3,5.1,–,F1:5:L1:Fc (bispecific antibody) EVQLVESGGGLVQPGGSLRLSCAASGFTFSHYTLSWVRQAPGKGLEWVSVISGDGSYTYYADSVKGRFTISSDNSKNTLYLQMNSLRAEDTAVYYCARNFIKYVFANWGQGTLVTVSSGGGGSGGGGSGGGGSDIELTQPPSVSVAPGQTARISCSGDNIGSFYVHWYQQKPGQAPVLVIYDKSNRPSGIPERFSGSNSGNTATLTISGTQAEDEADYYCQSYANTLSLVFGGGTKLTVLGSGSGDVKLVESGGGLVKLGGSLRLSCAASGFSFSTSYMSWVRQTPEKRLELVAAINLNGGSTYYSDTVKGRFTISRDNAKNTLYLQMSSLKSEDTAFYYCASELAGYGTPFAYWGQGTLVTVSAGSAASGSSGGSSSGADIVLTQSPATLSVTPGDSVSLSCKASQSISYNLHWYQQKSHESPRLLIKYTSQSISGIPSRFSGSGSGTDFTLTINNVETEDFGMYFCQQSNSWPLTFGAGTKLEVKGSGSGDKTHTCPPCPAPEAAGGPSVFLFPPKPKDTLMISRTPEVTCVVVDVSHEDPEVKFNWYVDGVEVHNAKTKPREEQYNSTYRVVSVLTVLHQDWLNGKEYKCKVSNKALGAPIEKTISKAKGQPREPQVYTLPPSREEMTKNQVSLTCLVKGFYPSDIAVEWESNGQPENNYKTTPPVLDSDGSFFLYSKLTVDKSRWQQGNVFSCSVMHEALHNHYTQKSLSLSPGK
–,–,98,αGFP:5:L1:Fc (bispecific antibody) QVQLVESGGGLVQPGGSLRLSCAASGFTFSRYGMHWVRQAPGKGLEWVSGISSIGSNTYYADSVKGRFTISRDNSKNTLYLQMNSLRAEDTAVYYCARWYKTYIDVWGQGTLVTVSSGGGGSGGGGSGGGGSDIELTQPPSVSVAPGQTARISCSGDNLGKKYVYWYQQKPGQAPVLVIYGDDERPSGIPERFSGSNSGNTATLTISGTQAEDEADYYCASYDSSHILIVFGGGTKLTVLGSGSGDVKLVESGGGLVKLGGSLRLSCAASGFSFSTSYMSWVRQTPEKRLELVAAINLNGGSTYYSDTVKGRFTISRDNAKNTLYLQMSSLKSEDTAFYYCASELAGYGTPFAYWGQGTLVTVSAGSAASGSSGGSSSGADIVLTQSPATLSVTPGDSVSLSCKASQSISYNLHWYQQKSHESPRLLIKYTSQSISGIPSRFSGSGSGTDFTLTINNVETEDFGMYFCQQSNSWPLTFGAGTKLEVKGSGSGDKTHTCPPCPAPEAAGGPSVFLFPPKPKDTLMISRTPEVTCVVVDVSHEDPEVKFNWYVDGVEVHNAKTKPREEQYNSTYRVVSVLTVLHQDWLNGKEYKCKVSNKALGAPIEKTISKAKGQPREPQVYTLPPSREEMTKNQVSLTCLVKGFYPSDIAVEWESNGQPENNYKTTPPVLDSDGSFFLYSKLTVDKSRWQQGNVFSCSVMHEALHNHYTQKSLSLSPGK
